Source: PMC4854314, “RNA protects a nucleoprotein complex against radiation damage” (Acta Crystallographica. Section D, Structural Biology, 2016)

Target: the molecule itself
Assay: crystal structure; TRAP-RNA crystals, hanging drop, 2:1 molar ratio of TRAP to RNA, 70 mM potassium phosphate pH 7.8, 10 mM L-tryptophan; data collected at 100 K, 1.98 Å; asymmetric unit holds one RNA-bound and one non-RNA-bound TRAP ring

B1: trp RNA-binding attenuation protein (TRAP) from B. stearothermophilus (natural protein)
chain: MYTNSDFVVIKALEDGVNVIGLTRGADTRFHHSEKLDKGEVLIAQFTEHTSAIKVRGKAYIQTRHGVIESEGKK
notes: construct as in Hopcroft et al., 2002 (PDB 1gtf); 11 identical subunits form a ring; also called TRAP ring; source: overexpressed in Escherichia coli and purified; copies: 11
stoichiometry N: 11
